Experimental data: PMC12428139, “The Functional State of Thermoplasma acidophilum Pyruvate Kinase Relies on an Extra Carboxyl-Terminal Sequence” (International Journal of Molecular Sciences, 2025)
Values joined by “and” are separate entries in the source; they are usually repeats but may differ in a detail not shown here. Identical values can stand only once. Like-named read-outs stand apart in the source and are kept apart here.

Key:
[1] = molecular target: ECTS truncated-ThaPK (Thermoplasma acidophilum pyruvate kinase lacking the extra C-terminal sequence) (Thermoplasma acidophilum) (UniProt P32044); test: native gel or EMSA; 1D Blue Native PAGE, linear 4-18% acrylamide gradient, 4 °C, 50 µg protein per well; bands excised and resolved by 2D SDS-PAGE; masses from regression on standards, triplicate gels
WT-ThaPK = molecular target: T1, WT-ThaPK (Thermoplasma acidophilum, UniProt P32044); test: LDH/NADH coupled assay, dead-end inhibition, global fit; assay type: biochemical
T1 construct: gene Ta0896; full length (1635 bp gene, 544 residues), N-terminal His6 tag and thrombin site (20 residues) kept, pET15b, E. coli BL21(DE3) Codon Plus-RIL
Text: LDH/NADH coupled assay, dead-end inhibition, global fit on WT-ThaPK

[2] = molecular target: the molecule itself; test: SEC; Superdex 200 (10/300), 50 mM HEPES pH 7.5, 150 mM NaCl, 500 µg of enzyme loaded, calibrated with BIORAD gel filtration standards

With “ECTS truncated-ThaPK (Thermoplasma acidophilum pyruvate kinase lacking the extra C-terminal sequence) (from UniProt P32044 1-450) (domain or fragment)” the stoichiometry N [1] was 2 and 3.

`O=C(O)C(=O)O` [oxalate] showed a Ki (WT-ThaPK; read-out: Ki (Oxalate)) of 44 ± 1 µM.

Molecule `Nc1ncnc2c1ncn2[C@@H]1O[C@H](COP(=O)(O)O)[C@@H](O)[C@H]1O` [AMP] has a Ki (WT-ThaPK; read-out: Ki (AMP)) of 3300 ± 300 µM.

B1: Thermoplasma acidophilum pyruvate kinase, wild type (WT-ThaPK) (enzyme, UniProt P32044 1-544, looked up)
chain: MKTKIVATIGPASSSPEIMKQMIDNGLSLVRINSAHADIKDVSKITQMVRSINRDVGIMIDLKGPELRTGEFAGGTLKISSGKDYVMGKDIVLNNMNVLSAVQVGDRILMSDGEVSFEVESTDPFTIRALNDGVLRDRSRVNIPGRFIELGTITDRDRAFIREGIADGVDFFALSFVQKSENVDSLRDFVIDSGGDQYIISKIETKSGLDNIEEIVKSSDGIMVARGDLGVELPLKEVVLAQKHIIKTAHEDGDFTIVATQVLESMVNNSSPTRAEISDITNAIIDNADALMLSEESAIGKYPVQAVRTLKEVSDYVEDKVSFDSSYYFKGNTIAYSVARAAKILSDDIKSDGIVALTHTGSTVRMISSLRPKAMVYAATVSESLARKLNIYFGVLPLHMEGNAEDLSFSEIMEYIVRSGRFADGSKLVMTSGDPYFTFGGTNDVKVAVVGKFIGRGYSFGDSLSGTATYGTKGDILMSEDGRIPGTDFRAFIFTSDIKPSLMSSLKGKTVVTKARLVRQIKEGERIYIDGNTGIILMASPDQK
notes: pyruvate kinase of Thermoplasma acidophilum; synthetic gene of 1635 bp cloned NdeI/BamHI in pET15b; last residue K544; monomer 59,147.48 Da plus 20 extra residues (His6 tag and thrombin site, 2193.26 Da) that thrombin could not cleave; The 20 additional N-terminal residues from pET15b (His6 tag and thrombin cleavage site) stayed on the protein in all experiments; also called wild-type enzyme; …
For B1, the “stoichiometry N” value [2] was 4.
